Data reported in US20220064275A1 (SCHOLAR ROCK, published 2022).
One block for each binder: values may come before it.

How the values were obtained:
human proTGFβ1 C4S [1] = molecular target: T1, human proTGFβ1 C4S (human, UniProt P01137 30-390); test: HDX-MS
T1 construct: Small latent complex without presenting molecule; the cysteine that links to presenting molecules is changed to serine; also called small latent complex proTGFβ1 C4S; latent TGFβ1
Procedure: In the non-deuterated experiments, each sample was mixed with sample buffer (1:15, v/v) at room temperature, then mixed with 1:1 (v/v) quenching buffer (100 mM sodium phosphate, 4 M guanidine HCl, 0.5 M TCEP) at 0° C. Quenched samples were immediately injected into a nanoACQUITY UPLC™ system with HDX technology (Waters Corp., Milford, Mass., USA) for on-column pepsin digestion. The eluent was directed into a SYNAPT® G2 HDMS mass spectrometer (Waters Corp., Milford, Mass., USA) for analysis in MSE mode. For H/D exchange experiments, each sample was mixed with labeling buffer (20 mM HEPES, 150 mM NaCl in deuterium oxide, pD 7.5) (1:15, v/v) to start the labeling reactions at 25° C. Five aliquots of each sample were labeled at various time intervals: 10 s, 1 min, 10 min, 1 h, and 2 h. At the end of each labeling time point, the reaction was quenched by adding 1:1 (v/v) quenching buffer, and the quenched samples were injected into the Waters H/DX-MS system for analysis. Between each sample run, a clean blank was run by injecting pepsin wash buffer (1.5 M guanidine HCl, 4% acetonitrile, 0.8% formic acid) into the H/DX-MS system.
In HDX-MS, the regions of an antigen that are tightly bound by an antibody are protected from proton exchange, due to protein-protein interaction, while regions that are exposed to solvent can readily undergo proton exchange. […]

[2] = molecular target: T2, human LTBP1-proTGFβ1 complex (human, UniProt Q14766 873-1507); test: BLI (Octet)
T2 construct: range 873-1507; biotinylated in Octet and MSD-SET; also called hLTBP1-proTGFβ1; hLTBP1
T2 sequence (Q14766 873-1507 limits assumed, chain 1 of 2): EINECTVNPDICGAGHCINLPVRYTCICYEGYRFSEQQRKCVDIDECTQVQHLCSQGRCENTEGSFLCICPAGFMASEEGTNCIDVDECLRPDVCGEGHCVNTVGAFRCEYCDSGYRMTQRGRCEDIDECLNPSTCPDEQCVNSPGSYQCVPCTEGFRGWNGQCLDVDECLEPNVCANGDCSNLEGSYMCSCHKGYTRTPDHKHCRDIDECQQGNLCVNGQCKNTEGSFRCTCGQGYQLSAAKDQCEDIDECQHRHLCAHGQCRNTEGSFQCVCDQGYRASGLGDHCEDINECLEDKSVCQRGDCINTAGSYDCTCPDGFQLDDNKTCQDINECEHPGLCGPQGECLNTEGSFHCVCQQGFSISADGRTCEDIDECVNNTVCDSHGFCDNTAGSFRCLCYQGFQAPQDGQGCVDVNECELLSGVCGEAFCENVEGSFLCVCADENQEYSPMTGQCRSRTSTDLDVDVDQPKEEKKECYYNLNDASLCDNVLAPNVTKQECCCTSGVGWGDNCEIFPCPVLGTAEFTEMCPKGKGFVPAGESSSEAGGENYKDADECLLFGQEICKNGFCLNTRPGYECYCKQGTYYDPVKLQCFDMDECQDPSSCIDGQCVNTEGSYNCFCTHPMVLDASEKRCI
T2 sequence (chain, as listed by the source limits assumed, chain 2 of 2): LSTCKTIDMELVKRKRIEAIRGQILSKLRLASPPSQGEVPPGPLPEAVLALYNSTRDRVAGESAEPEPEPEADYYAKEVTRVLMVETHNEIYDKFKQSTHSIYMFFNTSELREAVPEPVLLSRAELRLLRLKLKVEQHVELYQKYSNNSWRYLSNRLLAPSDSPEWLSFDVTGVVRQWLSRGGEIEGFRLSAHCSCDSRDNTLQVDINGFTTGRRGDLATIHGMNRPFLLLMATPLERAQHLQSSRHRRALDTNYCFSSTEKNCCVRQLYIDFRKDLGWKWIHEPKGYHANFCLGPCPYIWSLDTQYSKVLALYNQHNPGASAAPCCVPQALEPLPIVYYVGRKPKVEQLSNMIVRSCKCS

[3] = molecular target: T3, human LTBP3-proTGFβ1 complex (human, UniProt Q9NS15 866-1039); test: BLI (Octet)
T3 construct: range 866-1039; also called hLTBP3-proTGFβ1; hLTBP3
T3 sequence (Q9NS15 866-1039 limits assumed, chain 1 of 2): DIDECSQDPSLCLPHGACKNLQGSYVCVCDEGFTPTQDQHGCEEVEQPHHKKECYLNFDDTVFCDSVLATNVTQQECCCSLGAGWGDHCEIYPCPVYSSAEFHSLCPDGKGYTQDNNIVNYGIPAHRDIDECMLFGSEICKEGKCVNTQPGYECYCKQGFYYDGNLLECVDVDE
T3 sequence (chain, as listed by the source limits assumed, chain 2 of 2): as the sequence (chain, as listed by the source limits assumed, chain 2 of 2) above

[4] = molecular target: T4, human GARP-proTGFβ1 complex (human, UniProt Q14392 20-627; P01137 30-390); test: BLI (Octet)
T4 construct: also called hGARP-proTGFβ1; hGARP
T4 sequence (Q14392 20-627, chain 1 of 2): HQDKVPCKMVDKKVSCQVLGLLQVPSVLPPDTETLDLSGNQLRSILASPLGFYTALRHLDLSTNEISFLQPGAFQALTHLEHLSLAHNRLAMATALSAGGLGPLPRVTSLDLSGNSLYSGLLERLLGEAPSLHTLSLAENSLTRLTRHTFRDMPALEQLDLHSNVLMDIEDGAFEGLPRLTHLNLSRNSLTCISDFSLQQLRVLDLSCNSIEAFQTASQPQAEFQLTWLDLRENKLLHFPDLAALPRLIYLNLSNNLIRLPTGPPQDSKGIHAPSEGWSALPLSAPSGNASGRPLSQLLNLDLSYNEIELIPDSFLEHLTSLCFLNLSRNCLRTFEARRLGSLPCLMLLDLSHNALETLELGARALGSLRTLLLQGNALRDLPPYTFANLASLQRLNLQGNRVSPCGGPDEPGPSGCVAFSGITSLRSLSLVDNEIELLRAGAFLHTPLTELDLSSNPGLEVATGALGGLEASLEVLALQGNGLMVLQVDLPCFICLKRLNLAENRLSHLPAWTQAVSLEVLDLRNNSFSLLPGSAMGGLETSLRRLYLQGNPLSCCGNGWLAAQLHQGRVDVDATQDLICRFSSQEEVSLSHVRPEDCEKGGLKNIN
T4 sequence (P01137 30-390, chain 2 of 2): as the sequence (chain, as listed by the source limits assumed, chain 2 of 2) above

[5] = molecular target: T5, human LRRC33-proTGFβ1 complex (human, UniProt Q86YC3 19-650; P01137 30-390); test: BLI (Octet)
T5 construct: also called hLRRC33-proTGFβ1; hLRRC33
T5 sequence (Q86YC3 other isoform, or with tags, fused parts or gaps limits assumed, chain 1 of 2): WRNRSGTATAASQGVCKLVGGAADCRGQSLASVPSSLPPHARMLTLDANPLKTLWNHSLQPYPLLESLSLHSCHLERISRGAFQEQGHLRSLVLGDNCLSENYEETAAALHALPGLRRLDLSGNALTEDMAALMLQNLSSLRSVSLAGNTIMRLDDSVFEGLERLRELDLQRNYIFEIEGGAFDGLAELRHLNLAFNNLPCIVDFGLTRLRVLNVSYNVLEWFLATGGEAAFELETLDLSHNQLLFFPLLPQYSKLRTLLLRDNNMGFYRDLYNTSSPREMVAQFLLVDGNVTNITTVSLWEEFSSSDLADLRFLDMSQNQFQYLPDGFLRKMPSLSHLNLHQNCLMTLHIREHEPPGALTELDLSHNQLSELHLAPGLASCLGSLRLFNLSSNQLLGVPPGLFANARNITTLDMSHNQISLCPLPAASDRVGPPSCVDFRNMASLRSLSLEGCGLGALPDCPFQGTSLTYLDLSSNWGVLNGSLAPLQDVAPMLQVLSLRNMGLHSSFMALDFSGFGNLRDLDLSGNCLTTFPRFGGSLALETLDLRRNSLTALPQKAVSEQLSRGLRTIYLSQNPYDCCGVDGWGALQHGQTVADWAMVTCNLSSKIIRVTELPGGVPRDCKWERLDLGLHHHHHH
T5 sequence (P01137 30-390 limits assumed, chain 2 of 2): as the sequence (chain, as listed by the source limits assumed, chain 2 of 2) above

[6] = molecular target: hLTBP1-proTGFβ1 complex made by transfected cells (cell-based potency assay) (human, UniProt Q14766 347-1721; P01137 30-390); test: cell-based or functional assay
[7] = molecular target: hLTBP3-proTGFβ1 complex made by transfected cells (cell-based potency assay) (human, UniProt Q9NS15 44-1303; P01137 30-390); test: cell-based or functional assay
[8] = molecular target: hGARP-proTGFβ1 complex on cells (human, UniProt Q14392 20-662; P01137 30-390); test: cell-based or functional assay
Sequence of hGARP-proTGFβ1 complex on cells (Q14392 20-662 limits assumed, chain 1 of 2): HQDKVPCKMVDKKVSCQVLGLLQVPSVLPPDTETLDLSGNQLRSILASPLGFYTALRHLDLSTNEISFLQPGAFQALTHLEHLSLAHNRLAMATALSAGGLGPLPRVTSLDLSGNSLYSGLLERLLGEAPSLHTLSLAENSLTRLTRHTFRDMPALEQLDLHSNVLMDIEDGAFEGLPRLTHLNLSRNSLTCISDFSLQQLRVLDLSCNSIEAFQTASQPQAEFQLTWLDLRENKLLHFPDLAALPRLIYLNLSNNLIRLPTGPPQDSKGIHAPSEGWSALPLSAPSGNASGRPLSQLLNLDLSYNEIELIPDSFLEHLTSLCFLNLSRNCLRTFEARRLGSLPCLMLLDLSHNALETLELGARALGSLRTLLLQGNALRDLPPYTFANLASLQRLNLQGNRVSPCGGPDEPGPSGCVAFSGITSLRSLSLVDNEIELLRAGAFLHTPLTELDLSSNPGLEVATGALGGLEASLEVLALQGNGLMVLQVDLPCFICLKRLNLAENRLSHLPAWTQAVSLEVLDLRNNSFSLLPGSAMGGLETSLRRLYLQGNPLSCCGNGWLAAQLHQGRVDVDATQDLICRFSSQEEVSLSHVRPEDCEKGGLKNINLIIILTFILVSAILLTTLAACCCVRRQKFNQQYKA
Sequence of hGARP-proTGFβ1 complex on cells (P01137 30-390 limits assumed, chain 2 of 2): as the sequence (chain, as listed by the source limits assumed, chain 2 of 2) above

[9] = molecular target: hLRRC33-proTGFβ1 complex on cells (human, UniProt Q86YC3 19-692; P01137 30-390); test: cell-based or functional assay
Sequence of hLRRC33-proTGFβ1 complex on cells (Q86YC3 19-692 limits assumed, chain 1 of 2): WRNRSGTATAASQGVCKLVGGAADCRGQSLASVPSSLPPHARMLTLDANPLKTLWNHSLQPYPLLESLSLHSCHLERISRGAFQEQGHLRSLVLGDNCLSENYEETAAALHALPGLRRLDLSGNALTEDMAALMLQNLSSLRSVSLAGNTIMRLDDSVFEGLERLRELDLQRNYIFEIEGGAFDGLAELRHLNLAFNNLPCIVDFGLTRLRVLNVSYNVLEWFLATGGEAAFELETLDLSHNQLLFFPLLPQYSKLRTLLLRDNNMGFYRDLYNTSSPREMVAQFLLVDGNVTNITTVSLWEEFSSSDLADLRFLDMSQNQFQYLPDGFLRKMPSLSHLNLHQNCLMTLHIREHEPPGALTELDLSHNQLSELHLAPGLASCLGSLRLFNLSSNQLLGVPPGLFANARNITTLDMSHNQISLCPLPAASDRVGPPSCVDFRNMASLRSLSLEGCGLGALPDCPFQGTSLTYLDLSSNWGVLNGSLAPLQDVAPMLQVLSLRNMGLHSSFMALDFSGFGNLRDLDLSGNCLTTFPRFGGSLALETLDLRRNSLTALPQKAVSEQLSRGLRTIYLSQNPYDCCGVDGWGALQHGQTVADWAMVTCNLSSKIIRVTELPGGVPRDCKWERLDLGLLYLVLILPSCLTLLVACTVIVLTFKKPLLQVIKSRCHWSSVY
Sequence of hLRRC33-proTGFβ1 complex on cells (P01137 30-390 limits assumed, chain 2 of 2): as the sequence (chain, as listed by the source limits assumed, chain 2 of 2) above

[10] = molecular target: T2, human LTBP1-proTGFβ1 complex; test: MSD-SET, solution equilibrium titration
Procedure: (§1) MSD-SET assays were performed to measure affinities of the antibodies at equilibrium. Briefly, each test antibody was diluted 3-5 fold and samples were mixed with biotinylated antigen in a 48-well dish. The SET samples were equilibrated for 20-24 hours at room temperature. Meanwhile, a capture plate was coated with IgG (20 nM) and incubated overnight at 4° C. or 30 minutes at room temperature, followed by a blocking step with 5% BSA. After the capture plate was washed three times, SET samples were added and incubated for 150 seconds. The plate was washed once to remove unbound complexes. 250 ng/ml SA-Sulfotag was added then washed 3 times. 2× Read Buffer was added, and signals from the labeled bound complexes were read with the use of QuickPlex™ SQ 120 instrument.

[11] = molecular target: T3, human LTBP3-proTGFβ1 complex; test: MSD-SET, solution equilibrium titration
Procedure: as §1

[12] = molecular target: T4, human GARP-proTGFβ1 complex; test: MSD-SET, solution equilibrium titration
Procedure: as §1

[13] = molecular target: T5, human LRRC33-proTGFβ1 complex; test: MSD-SET, solution equilibrium titration
Procedure: as §1

human proTGFβ1 C4S [14] = molecular target: T1, human proTGFβ1 C4S; test: BLI (Octet Red384), proTGFβ1 C4S coupled to AR2G sensors, dissociation at pH 5; dissociation at pH 5
Procedure: (§2) The antibodies were tested against sensor-immobilized human proTGFβ1 C4S, which contains a mutation in the prodomain to facilitate proTGFβ1 expression without disulfide linkage to a presentation molecule. Polystyrene 96-well black half area plates (Greiner Bio-One) and amine reactive second-generation (AR2G) biosensors (FortéBio) were utilized for this experiment.
(§3) AR2G biosensors were first allowed to hydrate in water offline for at least 10 minutes before the initiation of the experiment. Upon initiation of the experiment, AR2G tips were equilibrated in water for 1 minute. Then, the tips were moved into an activation solution for 5 minutes. The activation solution consists of 18 parts water, 1 part 400 mM EDC (1-Ethyl-3-[3-dimethylaminopropyl] carbodiimide hydrochloride), and 1 part 200 mM s-NHS (N-hydroxysulfosuccinimide). The activation solution is prepared immediately before use in the experiment. After tip activation, the tips were loaded for 3 minutes with a 10 ug/mL solution of human proTGFβ1 C4S in 10 mM sodium acetate buffer pH 5. After loading, the tips were quenched in ethanolamine pH 8.5 for 15 minutes. The tips were then baseline/blocked with a 20 minute incubation in 1× enhanced kinetics buffer.

human proTGFβ1 C4S [15] = molecular target: T1, human proTGFβ1 C4S; test: BLI (Octet Red384), proTGFβ1 C4S coupled to AR2G sensors, dissociation at pH 7; dissociation at pH 7
Procedure: as §2, §3

human proTGFβ1 C4S/R249A = molecular target: T6, human proTGFβ1 C4S/R249A (human, UniProt P01137 30-390); test: X-ray crystal structure of the ternary complex
T6 construct: Expressed with kifunensine and treated with endoglycosidase H; also called uncleavable human proTGFβ1 variant
T6 sequence (P01137 other isoform, or with tags, fused parts or gaps R249A R249A): as the sequence (chain, as listed by the source limits assumed, chain 2 of 2) above, with C4S, R249A counted along it
From the text: In this work, an uncleavable human proTGFβ1 C4S/R249A variant was used that spans residues 30-390 based on the full-length sequence of human proTGFβ1 (Uniprot ID P01137). The numbering system that will be used for the rest of this document will designate position 1 as the first amino acid residue after the removal of the signal sequence for proTGFβ isoforms. The C4S mutation renders proTGFβ1 not capable of covalent crosslinking to any known presenting molecules, e.g. LTBPs and GARP, while the R249A renders proTGFβ1 resistant to proprotein convertase/furin protease cleavage, thus maintaining proTGFβ1 in its uncleaved, proprotein form. […] The AbX Fab in this context was used as an auxiliary protein, which acts as a crystallization chaperone to increase the probability of obtaining protein crystals.
Crystallization experiments were performed at room temperature in a sitting drop format. […] X-ray diffraction data were collected at the SER-CAT beamline 22-ID at the Advanced Photon Source (APS) at the Argonne National Laboratory (ANL) using a Dectris Eiger 16M detector. The diffraction images were processed with X-ray Detector Software (XDS) in space group C2221 with an asymmetric unit containing one half of a 2:2:2 complex. The structure of the ternary complex was solved by molecular replacement using Phaser.

T1 sequence (P01137 other isoform, or with tags, fused parts or gaps): as the sequence (chain, as listed by the source limits assumed, chain 2 of 2) above, with C4S counted along it

binding result (human proTGFβ1 C4S [1]): binds
B1: Ab6 Fab (Fab, V domains shown)
VH: EVQLVESGGGLVQPGGSLRLSCTASGFTFSSFSMDWVRQAPGKGLEWVSYISPSADTIYYADSVKGRFTISRDNAKNTLYLQMNSLRAEDTAVYYCARGVLDYGDMLMPWGQGTLVTVSS
VL: DIQMTQSPSSLSASVGDRVTITCQASQDITNYLNWYQQKPGKAPKLLIYDASNLETGVPSRFSGSGSGTDFTFTISSLQPEDIATYYCQQADNHPPWTFGGGTKVEIK
notes: Fab of Ab6

Kd [2]: 0.165 nM | Kd [3]: 0.148 nM | Kd [4]: 0.778 nM | Kd [5]: 0.508 nM | IC50, reporter cell assay of TGFβ1 activation [6]: 3.39 nM | IC50, reporter cell assay of TGFβ1 activation [7]: 0.867 nM | IC50, reporter cell assay of TGFβ1 activation [8]: 0.776 nM | IC50, reporter cell assay of TGFβ1 activation [9]: 1.38 nM | Kd [10]: 0.36 nM | Kd [11]: 0.171 nM | Kd [12]: 1.4 nM | Kd [13]: 3.2 nM | koff (human proTGFβ1 C4S [14]): 0.00561 s⁻¹ | koff (human proTGFβ1 C4S [15]): 0.00278 s⁻¹
B2: Ab2 (antibody, human IgG4 S228P, kappa, V domains shown)
VH: EVQLLESGGGLVQPGGSLRLSCAASGFTFADYAMTWVRQAPGKGLEWVSAISGSGAATYFADSVKGRFTISRDNSKNTLYLQMNSLRAEDTAVYYCARVSSGHWDFDYWGQGTLVTVSS
VL: DIQLTQSPSSLSASVGDRVTITCRASQSISSYLNWYQQKPGKAPKLLIYAASNLQSGVPSRFSGSGSGTDFTLTISSLQPEDFATYYCQQTYTVPLTFGGGTKVEIKR

binding result (human proTGFβ1 C4S/R249A): binds
B3: Ab2 Fab (Fab, V domains shown)
VH: EVQLLESGGGLVQPGGSLRLSCAASGFTFADYAMTWVRQAPGKGLEWVSAISGSGAATYFADSVKGRFTISRDNSKNTLYLQMNSLRAEDTAVYYCARVSSGHWDFDYWGQGTLVTVSS
VL: DIQLTQSPSSLSASVGDRVTITCRASQSISSYLNWYQQKPGKAPKLLIYAASNLQSGVPSRFSGSGSGTDFTLTISSLQPEDFATYYCQQTYTVPLTFGGGTKVEIK
notes: Fab of Ab2; C-terminally 6x-His tagged in the crystallography work
